Measurements taken from US20170226207A1 (Astellas, published 2017).

T1: human Igβ on human B cells (human, UniProt P40259 29-229)
T1 sequence (looked up): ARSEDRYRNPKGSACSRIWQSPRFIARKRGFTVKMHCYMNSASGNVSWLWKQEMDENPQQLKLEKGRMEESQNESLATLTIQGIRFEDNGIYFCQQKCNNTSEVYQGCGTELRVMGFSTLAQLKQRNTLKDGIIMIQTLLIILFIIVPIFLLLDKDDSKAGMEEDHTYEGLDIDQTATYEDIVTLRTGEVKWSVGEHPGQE

T2: monkey Igβ-Flag protein (monkey)
T2 chain: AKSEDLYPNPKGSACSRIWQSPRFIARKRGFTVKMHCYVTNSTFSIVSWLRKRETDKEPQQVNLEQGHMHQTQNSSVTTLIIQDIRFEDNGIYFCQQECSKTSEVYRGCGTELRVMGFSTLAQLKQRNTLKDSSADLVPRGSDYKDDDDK

T3: human Igβ-Flag protein (human, UniProt P40259 29-159, limits assumed)
T3 construct: Expressed in FreeStyle 293 cells, purified from culture supernatant with anti-Flag M2 gel; not shown: Flag tag
T3 sequence (looked up): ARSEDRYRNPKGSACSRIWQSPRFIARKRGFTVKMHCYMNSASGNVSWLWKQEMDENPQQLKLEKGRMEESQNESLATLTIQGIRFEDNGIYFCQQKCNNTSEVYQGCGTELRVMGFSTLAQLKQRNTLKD


What was measured:
[1] = biological target: T1, human Igβ on human B cells; test: cell-based or functional assay
monkey Igβ-Flag protein = biological target: T2, monkey Igβ-Flag protein; test: antigen ELISA, Igβ-Flag coated on plate, chemiluminescence
Protocol: (§1) In order to measure the antigen binding activity of the humanized antibody, antigen ELISA was used. The human Igβ-Flag protein acquired in Example 1 was prepared with a tris-buffered saline (TBS; Wako Pure Chemical Industries, Ltd.) so as to have a concentration of 5000 ng/mL, added to a NUNC MaxiSorp white 384 plate (Maxisorp 384 plate: Nunc Corporation) by an amount of 15 μL per well, and then solidified at room temperature for 1 hour. The resultant was washed with TBS-T (0.05% Tween-20 containing TBS: Wako Pure Chemical Industries, Ltd.) twice, 120 μL of a blocking agent (Blocking One: Nacalai tesque, Inc.) was added thereto, the resultant was left at room temperature for 1 hour, and the solution was removed. A dilution series (8 steps with a final concentration of 0.46 ng/mL to 1 μg/mL) of respective humanized antibodies obtained in Example 3 was prepared using a dilute solution obtained by adding the same amount of the blocking agent and TBS and then added thereto by an amount of 15 μL. The resultant was left at room temperature for 1 hour, washed with a TBS-T washing liquid three times, and 20 μL of an horseradish peroxidase (HRP)-labeled rabbit anti-human Ig antibody (Dako Ltd.) which had been diluted 3000-fold with a diluted solution was added thereto. Thereafter, the resultant was left at room temperature for 1 hour and then washed with a TBS-T washing liquid three times. Next, 30 μL of BM-Chemiluminescence ELISA Substrate (POD) (Roche Diagnostics Inc.) which is a chemiluminescence detection reagent was added thereto, and the amount of chemiluminescence thereof was measured by an EnVision counter (PerkinElmer, Co., Ltd.). Using the same method, antigen ELISA assay was performed using the monkey Igβ-Flag protein acquired in Example 1. When the binding activities in respective concentrations of the test antibodies were calculated, the measuring amount of a well to which a test antibody was not added was set to 0% and the convergence value of the maximum activity of the test antibody was set to 100%. The calculated binding activities were analyzed and the EC50 values of the test antibodies were calculated by fitting a curve.

human Igβ-Flag protein = biological target: T3, human Igβ-Flag protein; test: as above
Protocol: as §1

Binder | proliferation rate of human B cells (anti-IgM antibody-induced) at 30 µg/mL antibody [1] [%] | EC50 (monkey Igβ-Flag protein) [µg/mL] | EC50 (human Igβ-Flag protein) [µg/mL]
humanized antibody CL6_40m12_DDW (antibody, human IgG1, kappa, V domains shown, Humanized anti-human Igβ antibody) VH: EVQMVESGGGLVQPGGSLRLSCAVSGFSLSSYSVHWVRQAPGKGLEWVAGIWSGGSIHYTPALSSRFTVSRDDSKNTVYLQMNSLRAEDTAVYYCARYDRYETYAMDYWGQGTLVTVSS VL: DIQLTQSPSSLSASVGDRVTITCKASQSVDYDGDSYMNWYQQKPGKAPKLLIYAASNLESGVPSRFSGSGSGTDFTLTISSLQPEDFATYYCQQSNEDPLTFGQGTKVEIKR | 2.8 | 0.183 | 0.128
humanized antibody CL6_40m14_DDW (antibody, human IgG1, kappa, V domains shown, pyroglutamylation at the N terminal of the heavy chain in most of the purified antibody (glutamine of amino acid number 1 modified to pyroglutamic acid), Humanized anti-human Igβ antibody) VH: QVQMQESGPGLVRPSQTLSLTCTVSGFSLSSYSVHWVRQPPGRGLEWIGGIWSGGSIHYTPALSSRVTVLRDTSKNQVSLRLSSVTAADTAVYYCARYDRYETYAMDYWGQGSLVTVSS VL: DIQLTQSPSSLSASVGDRVTITCKASQSVDYDGDSYMNWYQQKPGKAPKLLIYAASNLESGVPSRFSGSGSGTDFTFTISSLQPEDIATYYCQQSNEDPLTFGQGTKVEIKR | 20.2 | 0.106 | 0.1
humanized antibody CL6_40m16_DDW (antibody, human IgG1, kappa, V domains shown, Humanized anti-human Igβ antibody) VH: EVQLVESGGGLVQPGGSLRLSCAVSGFSLSSYSVHWFRKAPGKGLEWLGGIWSGGSIHYTPALSSRLTVSRDISKNTVYLQMNSLRAEDTAVYYCARYDRYETYAMDYWGQGTLVTVSS VL: DIVLTQSPSSLSASVGDRVTITCKASQSVDYDGDSYMNWYQQKPGKAPKLLIYAASNLESGVPSRFSGSGSGTDFTLTISSLQPEDFATYYCQQSNEDPLTFGQGTKVEIKR | 23.2 | 0.118 | 0.132
